{
  "source": "patent US20260069728A1",
  "about": "“MULTI-TARGETING COMPOUND AND USE THEREOF” (Chengdu Shetai Medical Technology Co., Ltd., priority 2023, published 2026)",
  "key": {"[1]": {"experiment": "Stability of radioligands in PBS buffer (radio-HPLC)", "assay_type": "physicochemical", "method": "The purpose of this experiment was to test the stability of the radioligands under buffer conditions simulating the physiological environment. This stability is a prerequisite for further animal experiments.\n(§1) 1. ^68Ga-SDYD01: ^68Ga-SDYD01 was added to PBS buffer (pH=7.4) and incubated at 37° C. The mixture samples were taken for radio-HPLC analysis after 0.5 hours, 1 hour, and 2 hours of incubation. The stability of ^68Ga-SDYD01 in PBS buffer: the radiochemical purities of ^68Ga-SDYD01 after incubation in PBS for 0.5 hours, 1 hour, and 2 hours were 98%, 97%, and 97%, respectively (FIG. 4).\n(§2) 2. ^177Lu-SDYD01: ^177Lu-SDYD01 was added to PBS buffer (pH=7.4) and incubated at 37° C. The mixture samples were taken for radio-HPLC analysis after 24 hours, 48 hours, and 120 hours of incubation. The stability of ^177Lu-SDYD01 in PBS buffer: the radiochemical purities of ^177Lu-SDYD01 after incubation in PBS for 24 hours, 48 hours, and 120 hours were 97%, 96%, and 94%, respectively (FIG. 5).\nas §1, with “^68Ga-SDYD02: ^68Ga-SDYD02” for “^68Ga-SDYD01: ^68Ga-SDYD01”, “^68Ga-SDYD02” for “^68Ga-SDYD01”, “96%, 95%” for “98%, 97%,”, “93%,” for “97%,”, “10).” for “4).”\nas §2, with “^177Lu-SDYD02: ^177Lu-SDYD02” for “^177Lu-SDYD01: ^177Lu-SDYD01”, “^177Lu-SDYD02” for “^177Lu-SDYD01”, “95%, 91%” for “97%, 96%,”, “87%,” for “94%,”, “11).” for “5).”\nas §1, with “1. ^68Ga-SDYD05: ^68Ga-SDYD05” for “1. ^68Ga-SDYD01: ^68Ga-SDYD01”, “of ^68Ga-SDYD05” for “of ^68Ga-SDYD01”, “98%, 96%” for “98%, 97%,”, “and 95%,” for “and 97%,”, “(FIG. 16).” for “(FIG. 4).”\nas §2, with “^177Lu-SDYD05: ^177Lu-SDYD05” for “^177Lu-SDYD01: ^177Lu-SDYD01”, “^177Lu-SDYD05” for “^177Lu-SDYD01”, “97%, 96% and” for “97%,”, “96%,” for “96%, and 94%,”, “17).” for “5).”\n1. ^68Ga-SDYD06: ^68Ga-SDYD06 was added to PBS buffer (pH=7.4) and incubated at 37° C. The mixture samples were taken for radio-HPLC analysis after 0.5, 1, and 2 hours of incubation. The stability of ^68Ga-SDYD06 in PBS buffer: the radiochemical purities of ^68Ga-SDYD06 after incubation in PBS for 0.5 hours, 1 hour, and 2 hours were 96%, 94% and 93%, respectively (FIG. 22).\n2. ^177Lu-SDYD06: ^177Lu-SDYD06 was added to PBS buffer (pH=7.4) and incubated at 37° C. The mixture samples were taken for radio-HPLC analysis after 24 hours, 48 hours, and 120 hours of incubation.\n1. ^68Ga-SDYD03: ^68Ga-SDYD03 was added to PBS buffer (pH=7.4) and incubated at 37° C. The mixture samples were taken for radio-HPLC analysis after 0.5 hours, 1 hour, and 2 hours of incubation. The stability of ^68Ga-SDYD03 PBS in PBS buffer: the radiochemical purities of ^68Ga-SDYD03 after incubation in PBS for 0.5 hours, 1 hour, and 2 hours were 96%, 96% and 95%, respectively (FIG. 27).\nas §2, with “^177Lu-SDYD03: ^177Lu-SDYD03” for “^177Lu-SDYD01: ^177Lu-SDYD01”, “^177Lu-SDYD03” for “^177Lu-SDYD01”, “are 99%, 96%” for “were 97%, 96%,”, “28). […]” for “5).”"}, "[2]": {"experiment": "Small animal PET imaging and biodistribution study", "assay_type": "in vivo, NSG mice", "conditions": "mouse, in vivo, iv, 7.4 MBq, absolute uptake value in the tumor", "method": "(§3) Eleven NSG mice bearing subcutaneous xenograft tumors (U87 MG cells), with tumor sizes approximately 150 mm^3, were used. The mice were intravenously injected via the tail vein with approximately 7.4 MBq of ^68Ga-labeled SDYD01, SDYD02, SDYD03. SDYD04, SDYD05, SDYD06, SDYD07, SDYD08 or SDYD07-1 compounds, or with ^[…]-labeled FAPI-04 or FAP2286 compounds as tracers. Micro PET/CT imaging was performed at 30 min, 60 min, and 120 min post-injection. Static images were acquired in 3D mode for 20 minutes. Reconstruction was performed using the OSEM3D/MAP method to obtain attenuation-corrected PET/CT fusion images.\n(§4) NSG mice bearing subcutaneous xenograft tumors (U87 MG cells) were divided into 3 groups, with 11 mice in each group. They were intravenously injected via the tail vein with ^68Ga-labeled SDYD01, SDYD02, SDYD03. SDYD04, SDYD05, SDYD06. SDYD07, SDYD08, or SDYD07-1 compounds, or with ^68Ga-labeled FAPI-04 or FAP2286 compounds as tracers. Tumor-bearing mice injected with ^68Ga-labeled compounds SDYD01, SDYD02, SDYD03, SDYD04, SDYD05, SDYD06, FAPI-04, as well as 68Ga-labeled compounds FAPI-04 and FAP2286, were euthanized at 30 min. 60 min, and 120 min, respectively, for each group. Tumor-bearing mice injected with ^68Ga-labeled compounds SDYD07, SDYD08, and SDYD07-1 were euthanized at 30 min, 60 min, and 90 min, respectively, for each group. Blood, tumors, and other major organs and tissues were collected, weighed, and measured for radioactivity. After radioactive decay correction, the standardized uptake value (SUV) and percentage injected dose per gram of tissue (% ID/g) were calculated. In these figures, (a) represents the PET/CT imaging results, (b) represents the biodistribution results, and (c) represents the relative ratios of radioactive uptake in tumor versus normal tissues."}, "[3]": {"tested_on": "subcutaneous xenograft tumors (U87 MG cells)", "experiment": "Small animal PET imaging and biodistribution study", "assay_type": "in vivo, NSG mice", "conditions": "mouse, in vivo", "method": "as §3, §4"}},
  "note": "Where two headings read alike, the source gives them in different places.",
  "data": [
    {"molecule": "CCCCCC(=O)N[C@@H]1CSCc2cc(CSCCNC(=O)[C@@H](CCCCNC(=O)CN3CCN(CC(=O)O)CCN(CC(=O)O)CCN(CC(=O)O)CC3)NC(=O)COCCOCCNC(=O)COCCOCCNC(=O)CCN3C(=O)CC(SCCNC(=O)CCC(=O)N[C@@H](CCCNC(=N)N)C(=O)N[C@@H](CCCNC(=N)N)C(=O)N[C@@H](Cc4ccc5ccccc5c4)C(=O)N[C@@H]4CSSC[C@@H](C(=O)N[C@@H](CCCNC(=N)N)C(N)=O)NC(=O)[C@H](CCCNC(N)=O)NC(=O)[C@H](CCCNC(=N)N)NC(=O)[C@H](Cc5ccc(O)cc5)NC(=O)[C@@H]5CCCN5C(=O)[C@H](CCCCN)NC(=O)[C@H](CCCCN)NC(=O)[C@H](CCCNC(N)=O)NC(=O)[C@H](Cc5ccc(O)cc5)NC4=O)C3=O)cc(c2)CSC[C@@H](C(=O)O)NC(=O)[C@H](Cc2ccccc2)NC(=O)[C@H](CCC(N)=O)NC(=O)C([C@@H](C)O)NC(=O)[C@@H]2CCCN2C(=O)[C@@H]2CCCN2C1=O", "note": "(single isomer, unassigned) [^177Lu-SDYD02, metal not drawn]", "values": [
      {"measurement": "stability in PBS buffer (in words)", "setting": "[1]", "value": "quite stable in PBS buffer"}
    ]},
    {"molecule": "CC(C)CC(CC(C)C)NC(=O)[C@H](Cc1cnc[nH]1)NC(=O)CNC(=O)C(NC(=O)[C@H](C)NC(=O)[C@H](Cc1c[nH]c2ccccc12)NC(=O)[C@H](CCC(N)=O)NC(=O)[C@@H](Cc1ccccc1)NC(=O)COCC(=O)Nc1ccc(CNC(=O)COCCOCCNC(=O)COCCOCCNC(=O)[C@H](CCCCNC(=O)CN2CCN(CC(=O)O)CCN(CC(=O)O)CCN(CC(=O)O)CC2)NC(=O)CCC(=O)N2CCN(CCCOc3ccc4nccc(C(=O)NCC(=O)N5CC(F)(F)C[C@H]5C#N)c4c3)CC2)cc1)C(C)C", "note": "(single isomer, unassigned) [^177Lu-SDYD03, metal not drawn]", "values": [
      {"measurement": "stability in PBS buffer (in words)", "setting": "[1]; PBS buffer pH=7.4, 37° C.", "value": "quite stable in PBS buffer"}
    ]},
    {"molecule": "CCCCCC(=O)N[C@@H]1CSCc2cc(CSCCNC(=O)COCCOCCNC(=O)COCCOCCNC(=O)CSC3CC(=O)N(CCC(=O)N[C@H](CCCCNC(=O)CN4CCN(CC(=O)O)CCN(CC(=O)O)CCN(CC(=O)O)CC4)C(=O)NCc4ccc(C(=O)NCCC[C@@H]5C(=O)N[C@@H](CCCNC(=N)N)C(=O)N[C@@H](Cc6ccc7ccccc7c6)C(=O)NCC(=O)N[C@H](Cc6ccc(O)cc6)C(=O)N5C)cc4)C3=O)cc(c2)CSC[C@@H](C(=O)O)NC(=O)[C@H](Cc2ccccc2)NC(=O)[C@H](CCC(N)=O)NC(=O)C([C@@H](C)O)NC(=O)[C@@H]2CCCN2C(=O)[C@@H]2CCCN2C1=O", "note": "(single isomer, unassigned) [^177Lu-SDYD06, metal not drawn]", "values": [
      {"measurement": "stability in PBS buffer (in words)", "setting": "[1]", "value": "quite stable in PBS buffer"}
    ]},
    {"molecule": "CCCCCC(=O)N[C@H]1CSCc2cc(CSCCNC(=O)[C@H](CCCCNC(=O)CCN3C(=O)CC(SCC(=O)NCCOCCOCCOCCOCCC(=O)NCCCC[C@@H]4NC(=O)[C@@H](Cc5ccc(O)cc5)NC(=O)[C@H](CC(=O)O)NC(=O)CNC(=O)[C@H](CCCNC(=N)N)NC4=O)C3=O)NC(=O)CCC(C(=O)O)N3CCN(CC(=O)O)CCN(CC(=O)O)CCN(CC(=O)O)CC3)cc(c2)CSC[C@@H](C(=O)O)NC(=O)[C@H](Cc2ccccc2)NC(=O)[C@H](CCC(N)=O)NC(=O)C([C@@H](C)O)NC(=O)[C@@H]2CCCN2C(=O)[C@@H]2CCCN2C1=O", "note": "(single isomer, unassigned) [^177Lu-SDYD08, metal not drawn]", "values": [
      {"measurement": "stability in PBS buffer (in words)", "setting": "[1]", "value": "quite stable in PBS buffer"}
    ]},
    {"molecule": "N#C[C@@H]1CC(F)(F)CN1C(=O)CNC(=O)c1ccnc2ccc(OCCCN3CCN(C(=O)CCOCCOCCNC(=O)CCN4C(=O)CC(SC[C@H](NC(=O)CN5CCN(CC(=O)O)CCN(CC(=O)O)CCN(CC(=O)O)CC5)C(=O)NCCCC[C@@H]5NC(=O)[C@@H](Cc6ccc(O)cc6)NC(=O)[C@H](CC(=O)O)NC(=O)CNC(=O)[C@H](CCCNC(=N)N)NC5=O)C4=O)CC3)cc12", "note": "(stereo partly drawn) [^68Ga-SDYD07-1, metal not drawn]", "values": [
      {"measurement": "tissue uptake at 0.5 h", "setting": "[2]", "value": "~3", "unit": "%ID/g"},
      {"measurement": "tissue uptake at 1 h", "setting": "[2]", "value": "~3", "unit": "%ID/g"},
      {"measurement": "radioactive uptake in non-target organs (in words)", "setting": "[3]", "value": "relatively high non-specific uptake in both the kidneys and liver"},
      {"measurement": "tumor uptake after 60 minutes (in words)", "setting": "[3]", "value": "decreased significantly after 60 minutes"}
    ]},
    {"molecule": "CN1C(=O)[C@@H](Cc2ccc(O)cc2)NC(=O)CNC(=O)[C@H](Cc2ccc3ccccc3c2)NC(=O)[C@H](CCCNC(=N)N)NC(=O)[C@H]1CCCNC(=O)c1ccc(CNC(=O)[C@H](CCCCNC(=O)CN2CCN(CC(=O)O)CCN(CC(=O)O)CCN(CC(=O)O)CC2)NC(=O)CCC(=O)NCCOCCOCC(=O)NCCOCCOCC(=O)N2CCN(CCCOc3ccc4nccc(C(=O)NCC(=O)N5CC(F)(F)C[C@H]5C#N)c4c3)CC2)cc1", "note": "[^177Lu-SDYD05, metal not drawn]", "values": [
      {"measurement": "stability in PBS buffer (in words)", "setting": "[1]", "value": "quite stable in PBS buffer"}
    ]}
  ]
}
